Measurements from the supplement of paper PMC9112550, “Optimization of the antimicrobial peptide Bac7 by deep mutational scanning” (BMC Biology, 2022).

test system: Escherichia coli TOP10; experiment: shrunken log2 fold change of peptide-encoding DNA abundance (4.5 h post-induction vs induction); higher = less antimicrobial activity (less host growth inhibition); conditions: time post-induction: 4.5 h; library: site-saturation at positions 5, 18, 19, 20
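Note: peptides expressed intracellularly from a pBAD plasmid library in pooled LB shake-flask culture, induced with 0.3% L-arabinose, DNA abundance read by NGS, three biological replicates, DESeq2 with apeglm shrinkage.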

Row | Sequence | shrunken log2 fold change
1 | RRIRMRPPRLPRPRPRPMGLPRP | 0.0299
2 | RRIRLRPPRLPRPRPRPDRMPRP | -0.0414
3 | RRIRMRPPRLPRPRPRPRFGPRP | 0.853
4 | RRIRKRPPRLPRPRPRPWVDPRP | 0.572
5 | RRIRQRPPRLPRPRPRPLYIPRP | -0.659
6 | RRIRKRPPRLPRPRPRPVLVPRP | -0.0465
7 | RRIRNRPPRLPRPRPRPSTPPRP | -0.103
8 | RRIRYRPPRLPRPRPRPIPDPRP | 0.0657
9 | RRIRARPPRLPRPRPRPNWMPRP | 0.0981
10 | RRIRNRPPRLPRPRPRPTQRPRP | 0.582
11 | RRIRLRPPRLPRPRPRPYCPPRP | -0.24
12 | RRIRVRPPRLPRPRPRPYPTPRP | -0.398
13 | RRIRERPPRLPRPRPRPSGPPRP | -0.203
14 | RRIRMRPPRLPRPRPRPFHMPRP | 0.105
15 | RRIRCRPPRLPRPRPRPPRFPRP | 1.34
16 | RRIRGRPPRLPRPRPRPEWWPRP | 0.77
17 | RRIRFRPPRLPRPRPRPPKMPRP | 0.436
18 | RRIRLRPPRLPRPRPRPLSNPRP | -0.782
19 | RRIRNRPPRLPRPRPRPIEMPRP | -0.141
20 | RRIRNRPPRLPRPRPRPHEQPRP | -0.066
21 | RRIRYRPPRLPRPRPRPQTKPRP | -0.168
22 | RRIRNRPPRLPRPRPRPDFYPRP | -0.24
23 | RRIRERPPRLPRPRPRPKAVPRP | 0.0311
24 | RRIRVRPPRLPRPRPRPHQEPRP | 0.113
25 | RRIRCRPPRLPRPRPRPDEIPRP | 0.146

Row | Sequence | shrunken log2 fold change
26 | RRIRKRPPRLPRPRPRPDCGPRP | 0.016
27 | RRIRSRPPRLPRPRPRPRNMPRP | -0.53
28 | RRIRTRPPRLPRPRPRPERDPRP | 0.0175
29 | RRIRVRPPRLPRPRPRPAEQPRP | 0.247
30 | RRIRVRPPRLPRPRPRPLLFPRP | -0.141
31 | RRIRFRPPRLPRPRPRPQYYPRP | -0.846
32 | RRIRLRPPRLPRPRPRPLMPPRP | -0.0944
33 | RRIRPRPPRLPRPRPRPLAEPRP | 0.322
34 | RRIRYRPPRLPRPRPRPFETPRP | 0.111
35 | RRIRIRPPRLPRPRPRPHDCPRP | -0.123
36 | RRIRLRPPRLPRPRPRPGPNPRP | 0.0611
37 | RRIRRRPPRLPRPRPRPEGWPRP | 3.17
38 | RRIRQRPPRLPRPRPRPIIVPRP | -0.0856
39 | RRIRCRPPRLPRPRPRPMVGPRP | -0.00233
40 | RRIRHRPPRLPRPRPRPGVWPRP | 0.178
41 | RRIRQRPPRLPRPRPRPEMHPRP | 0.393
42 | RRIRARPPRLPRPRPRPNFKPRP | 0.0298
43 | RRIRLRPPRLPRPRPRPYIWPRP | -0.017
44 | RRIRDRPPRLPRPRPRPLDSPRP | 0.148
45 | RRIRQRPPRLPRPRPRPFGWPRP | -0.0154
46 | RRIRQRPPRLPRPRPRPQARPRP | -0.0121
47 | RRIRIRPPRLPRPRPRPEMDPRP | -0.277
48 | RRIRARPPRLPRPRPRPFQEPRP | 0.127
49 | RRIRQRPPRLPRPRPRPCVWPRP | 0.213
50 | RRIRCRPPRLPRPRPRPHLGPRP | -0.0785

Row | Sequence | shrunken log2 fold change
51 | RRIRRRPPRLPRPRPRPKRKPRP | 0.099
52 | RRIRVRPPRLPRPRPRPHFEPRP | 0.193
53 | RRIRFRPPRLPRPRPRPMEFPRP | -0.194
54 | RRIRPRPPRLPRPRPRPECSPRP | -0.0845
55 | RRIRHRPPRLPRPRPRPLEGPRP | 0.0244
56 | RRIRHRPPRLPRPRPRPPNKPRP | -0.171
57 | RRIRLRPPRLPRPRPRPENTPRP | -0.235
58 | RRIRCRPPRLPRPRPRPLNCPRP | -0.279
59 | RRIRLRPPRLPRPRPRPPRMPRP | 0.232
60 | RRIRRRPPRLPRPRPRPRFKPRP | 0.0822
61 | RRIRMRPPRLPRPRPRPLFYPRP | -0.305
62 | RRIRARPPRLPRPRPRPMINPRP | -0.0176
63 | RRIRHRPPRLPRPRPRPHCIPRP | -0.199
64 | RRIRFRPPRLPRPRPRPSYMPRP | -1.21
65 | RRIRMRPPRLPRPRPRPCVAPRP | 0.764
66 | RRIRHRPPRLPRPRPRPHLMPRP | -0.177
67 | RRIRPRPPRLPRPRPRPDFEPRP | -0.235
68 | RRIRLRPPRLPRPRPRPCFSPRP | -0.112
69 | RRIRMRPPRLPRPRPRPTFRPRP | -0.091
70 | RRIRCRPPRLPRPRPRPSTKPRP | -0.277
71 | RRIRFRPPRLPRPRPRPIHEPRP | -0.169
72 | RRIRERPPRLPRPRPRPSLNPRP | -0.181
73 | RRIRMRPPRLPRPRPRPGWLPRP | 0.533
74 | RRIRARPPRLPRPRPRPMLTPRP | 0.466
75 | RRIRNRPPRLPRPRPRPGWLPRP | 0.174

Row | Sequence | shrunken log2 fold change
76 | RRIRSRPPRLPRPRPRPQVLPRP | -0.0779
77 | RRIRMRPPRLPRPRPRPTLVPRP | 0.171
78 | RRIRTRPPRLPRPRPRPDCQPRP | -0.107
79 | RRIRCRPPRLPRPRPRPYREPRP | -0.09
80 | RRIRMRPPRLPRPRPRPRWDPRP | 0.793
81 | RRIRIRPPRLPRPRPRPLLGPRP | -0.175
82 | RRIRMRPPRLPRPRPRPCMRPRP | 0.889
83 | RRIRQRPPRLPRPRPRPILAPRP | 0.465
84 | RRIRQRPPRLPRPRPRPMNHPRP | -0.337
85 | RRIRVRPPRLPRPRPRPTEVPRP | 0.0934
86 | RRIRTRPPRLPRPRPRPNALPRP | -0.0225
87 | RRIRRRPPRLPRPRPRPEHQPRP | 0.25
88 | RRIRDRPPRLPRPRPRPQLVPRP | 0.0777
89 | RRIRMRPPRLPRPRPRPTWIPRP | 0.0438
90 | RRIRSRPPRLPRPRPRPQCVPRP | -0.204
91 | RRIRVRPPRLPRPRPRPWRKPRP | 0.0283
92 | RRIRTRPPRLPRPRPRPGVWPRP | 0.631
93 | RRIRKRPPRLPRPRPRPRKTPRP | 0.303
94 | RRIRCRPPRLPRPRPRPRFKPRP | -0.00257
95 | RRIRKRPPRLPRPRPRPNAPPRP | 0.449
96 | RRIRCRPPRLPRPRPRPYTQPRP | -1.31
97 | RRIRYRPPRLPRPRPRPDPWPRP | -0.26
98 | RRIRERPPRLPRPRPRPELNPRP | -0.119
99 | RRIRKRPPRLPRPRPRPMPHPRP | 0.274
100 | RRIRNRPPRLPRPRPRPQFCPRP | -0.0424

Row | Sequence | shrunken log2 fold change
101 | RRIRCRPPRLPRPRPRPRLEPRP | 0.299
102 | RRIRGRPPRLPRPRPRPFMCPRP | 0.224
103 | RRIRTRPPRLPRPRPRPWDAPRP | 0.125
104 | RRIRVRPPRLPRPRPRPNYFPRP | -0.303
105 | RRIRIRPPRLPRPRPRPFFMPRP | -0.538
106 | RRIRLRPPRLPRPRPRPDIGPRP | -0.189
107 | RRIRFRPPRLPRPRPRPLMFPRP | -0.695
108 | RRIRMRPPRLPRPRPRPHYMPRP | -0.425
109 | RRIRGRPPRLPRPRPRPLPWPRP | 0.702
110 | RRIRQRPPRLPRPRPRPFVSPRP | -0.216
111 | RRIRNRPPRLPRPRPRPYHPPRP | -0.135
112 | RRIRQRPPRLPRPRPRPAQHPRP | 0.189
113 | RRIRHRPPRLPRPRPRPCTNPRP | -0.249
114 | RRIRSRPPRLPRPRPRPKHQPRP | 0.155
115 | RRIRFRPPRLPRPRPRPWNVPRP | -0.157
116 | RRIRERPPRLPRPRPRPLNVPRP | -0.0706
117 | RRIRGRPPRLPRPRPRPSWPPRP | 0.384
118 | RRIRLRPPRLPRPRPRPKGYPRP | -0.146
119 | RRIRMRPPRLPRPRPRPQQKPRP | 0.0182
120 | RRIRVRPPRLPRPRPRPGKMPRP | -0.0672
121 | RRIRFRPPRLPRPRPRPLLMPRP | -0.564
122 | RRIRSRPPRLPRPRPRPTRFPRP | 0.2
123 | RRIRPRPPRLPRPRPRPQKVPRP | 0.0449
124 | RRIRNRPPRLPRPRPRPMVTPRP | -0.157
125 | RRIRFRPPRLPRPRPRPWWLPRP | -0.0533

Row | Sequence | shrunken log2 fold change
126 | RRIRWRPPRLPRPRPRPVVMPRP | -0.0601
127 | RRIRHRPPRLPRPRPRPPWRPRP | 0.538
128 | RRIRYRPPRLPRPRPRPSCEPRP | -0.586
129 | RRIRHRPPRLPRPRPRPCRYPRP | -0.0657
130 | RRIRYRPPRLPRPRPRPIRIPRP | -0.144
131 | RRIRQRPPRLPRPRPRPLEDPRP | 0.0428
132 | RRIRIRPPRLPRPRPRPFHTPRP | -0.235
133 | RRIRTRPPRLPRPRPRPPWEPRP | 0.506
134 | RRIRARPPRLPRPRPRPSKAPRP | -0.151
135 | RRIRPRPPRLPRPRPRPSSYPRP | -0.197
136 | RRIRKRPPRLPRPRPRPLVAPRP | 0.805
137 | RRIRRRPPRLPRPRPRPMCDPRP | 0.308
138 | RRIRWRPPRLPRPRPRPMKYPRP | -0.311
139 | RRIRARPPRLPRPRPRPTWCPRP | 0.325
140 | RRIRQRPPRLPRPRPRPGGFPRP | 0.0441
141 | RRIRMRPPRLPRPRPRPMNEPRP | -0.101
142 | RRIRVRPPRLPRPRPRPIHPPRP | 0.0943
143 | RRIRFRPPRLPRPRPRPHTIPRP | -0.745
144 | RRIRMRPPRLPRPRPRPMWTPRP | 0.038
145 | RRIRFRPPRLPRPRPRPFYKPRP | -0.311
146 | RRIRYRPPRLPRPRPRPPESPRP | 0.0226
147 | RRIRTRPPRLPRPRPRPNGSPRP | -0.198
148 | RRIRFRPPRLPRPRPRPNWHPRP | -0.0729
149 | RRIRGRPPRLPRPRPRPCKPPRP | 0.108
150 | RRIRNRPPRLPRPRPRPQHEPRP | -0.0581
